The values below come from FireProtDB (doi:10.1021/bi00185a025).

B1: Chemotaxis protein CheY, P0AE67 (parent)
chain: MADKELKFLVVDDFSTMRRIVRNLLKELGFNNVEEAEDGVDALNKLQAGGYGFVISDWNMPNMDGLELLKTIRADGAMSALPVLMVTAEAKKENIIAAAQAGASGYVVKPFTAATLEEKLNKIFEKLGM

In the data set the parent is B1. The following applies: Escherichia coli (strain K12); pH 7; 25 °C; Urea; CD; Sodium phosphate 5 mM; reversible: yes; structure 1CEY; whole UniProt chain shown.

In the case of P110G F14N, the “ddG of mutation (higher = less stable)” value was -1.1 kcal/mol, the denaturant m value was determined as 1.6 kcal/mol/M, the “denaturant midpoint (higher = more stable)” value amounted to 3.94 M and the unfolding free energy came to 6.3 kcal/mol.
Regarding F14N, the “ddG of mutation (higher = less stable)” value is -2.9 kcal/mol, the denaturant m value was 1.8 kcal/mol/M, the “denaturant midpoint (higher = more stable)” value is 4.5 M and the unfolding free energy came to 8.1 kcal/mol.
